Assay results as given in IntAct's records for PubMed 17293598.

B1: Complement factor H (Homo sapiens), P08603 (parent)
chain: MRLLAKIICLMLWAICVAEDCNELPPRRNTEILTGSWSDQTYPEGTQAIYKCRPGYRSLGNVIMVCRKGEWVALNPLRKCQKRPCGHPGDTPFGTFTLTGGNVFEYGVKAVYTCNEGYQLLGEINYRECDTDGWTNDIPICEVVKCLPVTAPENGKIVSSAMEPDREYHFGQAVRFVCNSGYKIEGDEEMHCSDDGFWSKEKPKCVEISCKSPDVINGSPISQKIIYKENERFQYKCNMGYEYSERGDAVCTESGWRPLPSCEEKSCDNPYIPNGDYSPLRIKHRTGDEITYQCRNGFYPATRGNTAKCTSTGWIPAPRCTLKPCDYPDIKHGGLYHENMRRPYFPVAVGKYYSYYCDEHFETPSGSYWDHIHCTQDGWSPAVPCLRKCYFPYLENGYNQNYGRKFVQGKSIDVACHPGYALPKAQTTVTCMENGWSPTPRCIRVKTCSKSSIDIENGFISESQYTYALKEKAKYQCKLGYVTADGETSGSITCGKDGWSAQPTCIKSCDIPVFMNARTKNDFTWFKLNDTLDYECHDGYESNTGSTTGSIVCGYNGWSDLPICYERECELPKIDVHLVPDRKKDQYKVGEVLKFSCKPGFTIVGPNSVQCYHFGLSPDLPICKEQVQSCGPPPELLNGNVKEKTKEEYGHSEVVEYYCNPRFLMKGPNKIQCVDGEWTTLPVCIVEESTCGDIPELEHGWAQLSSPPYYYGDSVEFNCSESFTMIGHRSITCIHGVWTQLPQCVAIDKLKKCKSSNLIILEEHLKNKKEFDHNSNIRYRCRGKEGWIHTVCINGRWDPEVNCSMAQIQLCPPPPQIPNSHNMTTTLNYRDGEKVSVLCQENYLIQEGEEITCKDGRWQSIPLCVEKIPCSQPPQIEHGTINSSRSSQESYAHGTKLSYTCEGGFRISEENETTCYMGKWSSPPQCEGLPCKSPPEISHGVVAHMSDSYQYGEEVTYKCFEGFGIDGPAIAKCLGEKWSHPPSCIKTDCLSLPSFENAIPMGEKKDVYKAGEQVTYTCATYYKMDGASNVTCINSRWTGRPTCRDTSCVNPPTVQNAYIVSRQMSKYPSGERVRYQCRSPYEMFGDEEVMCLNGNWTEPPQCKDSTGKCGPPPPIDNGDITSFPLSVYAPASSVEYQCQNLYQLEGNKRITCRNGQWSEPPKCLHPCVISREIMENYNIALRWTAKQKLYSRTGESVEFVCKRGYRLSSRSHTLRTTCWDGKLEYPTCAKR
partner: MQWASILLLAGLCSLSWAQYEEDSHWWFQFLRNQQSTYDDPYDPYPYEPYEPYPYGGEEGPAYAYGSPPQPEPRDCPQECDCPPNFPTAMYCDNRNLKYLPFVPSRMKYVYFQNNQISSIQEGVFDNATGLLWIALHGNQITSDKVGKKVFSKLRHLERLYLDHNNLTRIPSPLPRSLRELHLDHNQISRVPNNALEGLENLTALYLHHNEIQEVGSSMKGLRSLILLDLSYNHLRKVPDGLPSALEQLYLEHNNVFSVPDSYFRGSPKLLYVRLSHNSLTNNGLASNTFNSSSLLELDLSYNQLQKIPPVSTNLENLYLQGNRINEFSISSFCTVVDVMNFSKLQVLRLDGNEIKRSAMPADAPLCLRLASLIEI
B2: Complement factor H (Homo sapiens), P08603 (parent)
chain: B1 chain
partner: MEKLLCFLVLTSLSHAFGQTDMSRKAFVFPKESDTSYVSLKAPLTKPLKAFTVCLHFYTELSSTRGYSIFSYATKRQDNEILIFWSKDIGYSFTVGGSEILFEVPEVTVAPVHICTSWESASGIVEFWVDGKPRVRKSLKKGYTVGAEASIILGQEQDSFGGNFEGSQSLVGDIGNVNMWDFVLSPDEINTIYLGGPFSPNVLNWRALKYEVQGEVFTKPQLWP

Variants of: B1
Details: with fmod_bovin FMOD

| effect of a mutation on the interaction | Variant |
| --- | --- |
| decreasing interaction strength | Y402H |

Variants of: B2
Details: with crp_human CRP

| effect of a mutation on the interaction | Variant |
| --- | --- |
| decreasing interaction strength | Y402H |
